Experimental findings from patent publication US20150140169 are described below.

Where a chain is given by its changes, count along the chain named. In names and notes the source's numbering stands.

The target in this data set is T1, alpha-s1 casein from Bos taurus.
T1 chain: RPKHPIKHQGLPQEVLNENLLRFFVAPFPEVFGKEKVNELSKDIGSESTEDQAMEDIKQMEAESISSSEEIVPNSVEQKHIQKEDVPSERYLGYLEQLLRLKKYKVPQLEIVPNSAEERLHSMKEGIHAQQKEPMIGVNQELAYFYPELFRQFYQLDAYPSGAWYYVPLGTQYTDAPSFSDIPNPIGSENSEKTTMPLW

B1: Maxiren (recombinant wild-type calf chymosin B) (protein)
chain: GEVASVPLTNYLDSQYFGKIYLGTPPQEFTVLFDTGSSDFWVPSIYCKSNACKNHQRFDPRKSSTFQNLGKPLSIHYGTGSMQGILGYDTVTVSNIVDIQQTVGLSTQEPGDVFTYAEFDGILGMAYPSLASEYSIPVFDNMMNRHLVAQDLFSVYMDRNGQESMLTLGAIDPSYYTGSLHWVPVTVQQYWQFTVDSVTISGVVVACEGGCQAILDTGTSKLVGPSSDILNIQQAIGATQNQYGEFDIDCDNLSYMPTVVFEINGKMYPLTPSAYTSQDQGFCTSGFQSENHSQKWILGDVFIREYYSVFDRANNLVGLAKAI
As for B1, the (αSN1-1)/(αSN1), 6 hours, 11° C. (average) is 1.7; the (αSN1-1)/(αSN1), 24 hours, 11° C. (average) was found to be 6.3; the “hydrolysis of the first cut in alpha-s1-casein” value is on record as “This rapid first cut is similar to the situation with wild-type calf chymosin (Maxiren)”; the small, 6 hours, 11° C. was found to be 0 Volume. The protein further returned a small, 16 hours, 30° C. of 8.1e+06 Volume; a small, 24 hours, 11° C. of 6.7e+06 Volume; a αs1-I CN, 6 hours, 11° C. of 2.12e+07 Volume; a αs1-I CN, 6 hours, 11° C. (average) of 2.63e+07 Volume. Besides, the αs1-I CN, 16 hours, 30° C. worked out at 600000 Volume; the αs1-I CN, 24 hours, 11° C. was 1.59e+07 Volume; the αs1-I CN, 24 hours, 11° C. (average) was 2.52e+07 Volume; the αs1-I CN/αs1 CN, 6 hours, 11° C. is 1.9. Further, the αs1-I CN/αs1 CN, 24 hours, 11° C. turned out to be 9.7; the αs1 CN, 6 hours, 11° C. is 1.14e+07 Volume; the αs1 CN, 6 hours, 11° C. (average) was 1.58e+07 Volume; the αs1 CN, 16 hours, 30° C. worked out at 900000 Volume. The protein also returned a αs1 CN, 24 hours, 11° C. of 1.6e+06 Volume and a αs1 CN, 24 hours, 11° C. (average) of 4e+06 Volume.

B2: bovine chymosin B variant #1 (A51V) (protein)
chain: B1 chain with A51V
As for B2, the “hydrolysis of the first cut in alpha-s1-casein” value is listed as “show a clear hydrolysis of the first cut in alpha-s1-casein, leading to a rapid formation of fragment alpha-s1-I casein”; the small, 6 hours, 11° C. was 0 Volume; the small, 24 hours, 11° C. was found to be 0 Volume; the αs1-I CN, 6 hours, 11° C. is 1.88e+07 Volume. The protein further had a αs1-I CN, 24 hours, 11° C. of 2.36e+07 Volume; a αs1-I CN/αs1 CN, 6 hours, 11° C. of 0.9; a αs1-I CN/αs1 CN, 24 hours, 11° C. of 4.1; a αs1 CN, 6 hours, 11° C. of 2.05e+07 Volume. Besides, the αs1 CN, 24 hours, 11° C. came to 5.8e+06 Volume.

B3: camel chymosin variant #138 (F223E) (protein)
chain: GKVAREPLTSYLDSQYFGKIYIGTPPQEFTVVFDTGSSDLWVPSIYCKSNVCKNHHRFDPRKSSTFRNLGKPLSIHYGTGSMEGFLGYDTVTVSNIVDPNQTVGLSTEQPGEVFTYSEFDGILGLAYPSLASEYSVPVFDNMMDRHLVARDLFSVYMDRNGQGSMLTLGAIDPSYYTGSLHWVPVTLQQYWQFTVDSVTINGVAVACVGGCQAILDTGTSVLEGPSSDILKIQMAIGATENRYGEFDVNCGNLRSMPTVVFEINGRDYPLSPSAYTSKDQGFCTSGFQGDNNSELWILGDVFIREYYSVFDRANNRVGLAKAI
The protein B3 gave a (αSN1-1)/(αSN1), 6 hours, 11° C. of 0.6; a (αSN1-1)/(αSN1), 24 hours, 11° C. of 1.4; a αs1-I CN, 6 hours, 11° C. of 2e+07 Volume; a αs1-I CN, 24 hours, 11° C. of 2.47e+07 Volume. Moreover, the αs1 CN, 6 hours, 11° C. is 3.29e+07 Volume and the αs1 CN, 24 hours, 11° C. came out at 1.74e+07 Volume.

B4: camel chymosin variant #140 (F223M) (protein)
chain: B3 chain with E223M
Turning to B4, the (αSN1-1)/(αSN1), 6 hours, 11° C. came out at 0.7; the (αSN1-1)/(αSN1), 24 hours, 11° C. turned out to be 2; the αs1-I CN, 6 hours, 11° C. was determined as 2.34e+07 Volume; the αs1-I CN, 24 hours, 11° C. was determined as 2.27e+07 Volume. Besides, the αs1 CN, 6 hours, 11° C. is 3.22e+07 Volume and the αs1 CN, 24 hours, 11° C. was found to be 1.14e+07 Volume.

B5: camel chymosin variant #147 (Q288H) (protein)
chain: B3 chain with E223F, Q288H
For the protein B5, the (αSN1-1)/(αSN1), 6 hours, 11° C. turned out to be 1.1; the (αSN1-1)/(αSN1), 24 hours, 11° C. came to 3.3; the αs1-I CN, 6 hours, 11° C. stood at 2.28e+07 Volume; the αs1-I CN, 24 hours, 11° C. was 2.35e+07 Volume. The protein also showed a αs1 CN, 6 hours, 11° C. of 2.15e+07 Volume and a αs1 CN, 24 hours, 11° C. of 7e+06 Volume.

B6: camel chymosin variant #143 (F223V) (protein)
chain: B3 chain with E223V
The protein B6 registered a (αSN1-1)/(αSN1), 6 hours, 11° C. of 1.1; a (αSN1-1)/(αSN1), 24 hours, 11° C. of 2.4; a αs1-I CN, 6 hours, 11° C. of 2.62e+07 Volume; a αs1-I CN, 24 hours, 11° C. of 1e+07 Volume. Further, the αs1 CN, 6 hours, 11° C. turned out to be 2.36e+07 Volume and the αs1 CN, 24 hours, 11° C. was determined as 4.1e+06 Volume.

B7: camel chymosin variant #145 (F223I) (protein)
chain: B3 chain with E223I
The protein B7 returned a (αSN1-1)/(αSN1), 6 hours, 11° C. of 1.2; a (αSN1-1)/(αSN1), 24 hours, 11° C. of 4.1; a αs1-I CN, 6 hours, 11° C. of 1.91e+07 Volume; a αs1-I CN, 24 hours, 11° C. of 1.17e+07 Volume. For the same protein, the αs1 CN, 6 hours, 11° C. worked out at 1.57e+07 Volume and the αs1 CN, 24 hours, 11° C. was determined as 2.8e+06 Volume.

B8: camel chymosin variant #142 (F223Q) (protein)
chain: B3 chain with E223Q
For B8, the (αSN1-1)/(αSN1), 6 hours, 11° C. is 0.7; the (αSN1-1)/(αSN1), 24 hours, 11° C. is 1.7; the αs1-I CN, 6 hours, 11° C. stood at 2.55e+07 Volume; the αs1-I CN, 24 hours, 11° C. worked out at 1.75e+07 Volume. This protein also returned a αs1 CN, 6 hours, 11° C. of 3.72e+07 Volume and a αs1 CN, 24 hours, 11° C. of 1.02e+07 Volume.

B9: camel chymosin variant #149 (Q288R) (protein)
chain: B3 chain with E223F, Q288R
In turn, B9 came in with a (αSN1-1)/(αSN1), 6 hours, 11° C. of 1; a (αSN1-1)/(αSN1), 24 hours, 11° C. of 3.3; a αs1-I CN, 6 hours, 11° C. of 2.16e+07 Volume; a αs1-I CN, 24 hours, 11° C. of 2.25e+07 Volume. The αs1 CN, 6 hours, 11° C. stood at 2.22e+07 Volume and the αs1 CN, 24 hours, 11° C. was found to be 6.7e+06 Volume.

B10: camel chymosin variant #141 (F223N) (protein)
chain: B3 chain with E223N
Protein B10 showed a (αSN1-1)/(αSN1), 6 hours, 11° C. of 0.7; a (αSN1-1)/(αSN1), 24 hours, 11° C. of 2; a αs1-I CN, 6 hours, 11° C. of 2.57e+07 Volume; a αs1-I CN, 24 hours, 11° C. of 2.49e+07 Volume. The protein further had a αs1 CN, 6 hours, 11° C. of 3.57e+07 Volume and a αs1 CN, 24 hours, 11° C. of 1.27e+07 Volume.

B11: camel chymosin variant #150 (Q288S) (protein)
chain: B3 chain with E223F, Q288S
In the case of B11, the (αSN1-1)/(αSN1), 6 hours, 11° C. was found to be 0.6; the (αSN1-1)/(αSN1), 24 hours, 11° C. came out at 1.3; the αs1-I CN, 6 hours, 11° C. stood at 1.83e+07 Volume; the αs1-I CN, 24 hours, 11° C. is 2.31e+07 Volume. In addition, the αs1 CN, 6 hours, 11° C. is 2.87e+07 Volume and the αs1 CN, 24 hours, 11° C. came out at 1.72e+07 Volume.

B12: camel chymosin variant #151 (D290A) (protein)
chain: B3 chain with E223F, D290A
Turning to B12, the (αSN1-1)/(αSN1), 6 hours, 11° C. is 1; the (αSN1-1)/(αSN1), 24 hours, 11° C. was 2.5; the αs1-I CN, 6 hours, 11° C. amounted to 2.29e+07 Volume; the αs1-I CN, 24 hours, 11° C. turned out to be 3.22e+07 Volume. Besides, the αs1 CN, 6 hours, 11° C. was 2.31e+07 Volume and the αs1 CN, 24 hours, 11° C. stood at 1.31e+07 Volume.

B13: camel chymosin variant #144 (F223Y) (protein)
chain: B3 chain with E223Y
For B13, the (αSN1-1)/(αSN1), 6 hours, 11° C. was 1; the (αSN1-1)/(αSN1), 24 hours, 11° C. amounted to 3.3; the αs1-I CN, 6 hours, 11° C. was 3.05e+07 Volume; the αs1-I CN, 24 hours, 11° C. came out at 2.82e+07 Volume. In addition, the αs1 CN, 6 hours, 11° C. was determined as 3.12e+07 Volume and the αs1 CN, 24 hours, 11° C. stood at 8.4e+06 Volume.

B14: camel chymosin variant #148 (Q288N) (protein)
chain: B3 chain with E223F, Q288N
As for B14, the (αSN1-1)/(αSN1), 6 hours, 11° C. worked out at 0.6; the (αSN1-1)/(αSN1), 24 hours, 11° C. is 1.3; the αs1-I CN, 6 hours, 11° C. was 1.74e+07 Volume; the αs1-I CN, 24 hours, 11° C. worked out at 2.62e+07 Volume. Moreover, the αs1 CN, 6 hours, 11° C. came to 2.83e+07 Volume and the αs1 CN, 24 hours, 11° C. is 2.03e+07 Volume.

B15: camel chymosin variant #146 (Q288G) (protein)
chain: B3 chain with E223F, Q288G
Regarding B15, the (αSN1-1)/(αSN1), 6 hours, 11° C. stood at 0.9; the (αSN1-1)/(αSN1), 24 hours, 11° C. came out at 2.3; the αs1-I CN, 6 hours, 11° C. is 2.17e+07 Volume; the αs1-I CN, 24 hours, 11° C. is 2.85e+07 Volume. This protein had a αs1 CN, 6 hours, 11° C. of 2.38e+07 Volume and a αs1 CN, 24 hours, 11° C. of 1.23e+07 Volume.

B16: camel chymosin variant #139 (F223L) (protein)
chain: B3 chain with E223L
For B16, the (αSN1-1)/(αSN1), 6 hours, 11° C. was 1.2; the (αSN1-1)/(αSN1), 24 hours, 11° C. came to 4.3; the αs1-I CN, 6 hours, 11° C. worked out at 2.59e+07 Volume; the αs1-I CN, 24 hours, 11° C. is 1.24e+07 Volume. This protein displayed a αs1 CN, 6 hours, 11° C. of 2.1e+07 Volume and a αs1 CN, 24 hours, 11° C. of 2.9e+06 Volume.
